Assays:
Bovine sperm cells = test: Fluorescence microscopy of pegylated seminal proteins binding to sperm; format: cell-based; details: pegylated/biotinylated SP protein, 37° C. for 30 min in NCM
Protocol: (§1) NHS-dPEG4-Biotin was resuspended in H2O. Two hundred micrograms of PDC-109, BSP-A3, BSP-30 kDa and aSFP, were mixed in molar ratios of 1:5, 1:20, 1:40 and 1:60 with NHS-dPEG4Biotin and incubated for 30 min at room temperature. The reaction was stopped by the addition of 1M Tris-HCl pH7.4 at a final concentration of 25 mM. Pegylated proteins were dialysed against PBS to remove excess PEG. Pegylation was assessed by SDS-PAGE with Coomassie Blue staining. […] Western blots with labelled streptavidin supported this conclusion.
Bovine sperm cells from liquid extended semen were percoll-purified and washed in non-capacitating media (NCM; Table 3 below) with addition of 0.1% PEG (MW 600, Serva). The cells were incubated with pegylated/biotinylated SP proteins in NCM at 37° C. for 30 min, and centrifuged once to remove the supernatant. Cell pellets were resuspended in NCM containing streptavidin-alexa fluor 488 and LIVE/DEAD fixable far red dye, and incubated at 37° C. for 1 hr. Cells were washed once in NCM, and resuspended in NCM to a final concentration close to 10^7 cells/ml. DAPI was added to cells, and 10^5 cells were placed onto Superfrost plus slide. The sperm cells were studied with a Leica DMRE microscope equipped with a Leica DC500 camera, a fluorescent ebq 100 lamp and interchangeable filter sets.

sperm cells = test: Flow cytometry of pegylated seminal proteins binding to sperm; format: cell-based, bovine; details: 1 μg/mL pegylated SP protein, 30 min at 28° C.
Protocol: as §1
Sperm cells were prepared by centrifugation of fresh ejaculate containing extender through a 60% Percoll™ PLUS gradient followed by one wash in NCM. The sperm cells were then incubated for 30 min at 28° C. with 1 μg/mL of each of the pegylated SP proteins. After incubation with the pegylated SP proteins, cells were washed once, streptavidin-alexa fluor 488 was added to the cells and they were incubated for a further 30 min at 37° C. Flow cytometry analysis was then conducted.

Row | Molecule | Fluorescent signal on sperm (streptavidin-alexa fluor 488) (Bovine sperm cells) | Binding to sperm cells (right-shift in the histogram vs streptavidin-alexa fluor 488 alone) (sperm cells)
1 | aSFP: acidic seminal fluid protein, bovine spermadhesin; SEQ ID NO: 4 (protein, listed as Bos taurus) MKLSSVIPWALLLSTATVDSMDWLPRNTNCGGILKEESGVIATYYGPKTNCVWTIQMPPEYHVRVSIQYLQLNCNKESLEIIDGLPGSPVLGKICEGSLMDYRSSGSIMTVKYIREPEHPASFYEVLYFQDPQA | strong fluorescent signal in the acrosomal cap part of sperm head | 
2 | BSP-A3: bovine seminal plasma protein; SEQ ID NO: 2 (protein, listed as Bos taurus) MALRLGLFLIWAGVSMFLQLDPVNGDEQLSEDNVILPKEKKDPASGAETKDNKCVFPFIYGNKKYFDCTLHGSLFLWCSLDADYTGRWKYCTKNDYAKCVFPFIYEGKSYDTCIIIGSTFMNYWCSLSSNYDEDGVWKYC |  | demonstrated binding to sperm cells
3 | PDC-109: bovine seminal plasma protein purified by ion exchange chromatography; SEQ ID NO: 1 (protein, listed as Bos taurus) MALQLGLFLIWAGVSVFLQLDPVNGDQDEGVSTEPTQDGPAELPEDEECVFPFVYRNRKHFDCTVHGSLFPWCSLDADYVGRWKYCAQRDYAKCVFPFIYGGKKYETCTKIGSMWMSWCSLSPNYDKDRAWKYC |  | demonstrated binding to sperm cells

Reference: patent publication US8592138B2, “Methods for improving sperm functionality” (Androgenix Ltd., priority 2010, dated 2013)
